According to article PMC3237733:

Target: dansylated-FadAc (Fusobacterium nucleatum 12230) (UniProt Q5I6B0)
Experiment: other fluorescence titration

B1: GST-VE-cadherin_(415–534) (domain or fragment)
chain: KGQFFRVTKKGDIYNEKELDREVYPWYNLTVEAKELDSTGTPTGKESIVQVHIEVLDENDNAPEFAKPYQPKVCENAVHGQLVLQISAIDKDITPRNVKFKFILNTENNFTLTDNHDNTA
Question: How did the Kd turn out when B1 was run?
Answer: The Kd was 15.9 µM.
